Experimental data: the supplement of paper PMC12042874
± gives the uncertainty stated by the source.

Assay: amyloid nucleation score (Sup35N fusion, yeast selection) (log enrichment); library NNK3; higher = more nucleation; inactive = no reads after selection
Method in brief: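 DiMSum was used to calculate nucleation scores as log enrichment of output over input reads, centred on the mode score of non-aggregating sequences. Sequences with fewer than 100 input reads were not scored. Input and output came from Illumina sequencing of plasmid inserts in psi-negative yeast expressing peptides of 20 random codons fused to Sup35N, induced 24 hours with 100 μM copper sulfate and then grown 7 days at 30°C on medium lacking adenine and uracil.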
For FKNCHGVVTRCQW, the amyloid nucleation score was “inactive”. Substance KLFISPLEMLISRISWTILH has an amyloid nucleation score of 0.152 ± 0.77. For DFYICPCCLSLKKRTMMSCG, the amyloid nucleation score was “inactive”. THGREGYASSSSSLGPGSIS gave an amyloid nucleation score of -0.08 ± 0.44. With ISSFGARNTPWRTLSPAPEG the amyloid nucleation score was 0.184 ± 0.32. With REGSDHRFMICETFYFE the amyloid nucleation score was “inactive”. With VKLFKVPLVLSMRL the amyloid nucleation score was “inactive”. In the case of YLRVWPMRVYNMP, the amyloid nucleation score is reported as “inactive”. For VSAFFRSKG, the amyloid nucleation score was “inactive”. With RPFNRTYHILLYQMHYVRST the amyloid nucleation score was “inactive”. In the case of ANHCLCRGSKYLRKRVNLAI, the amyloid nucleation score is reported as “inactive”. With IAFEVY the amyloid nucleation score was “inactive”. For RPTGYQVTYEMRRSGG, the amyloid nucleation score was “inactive”. For SVFDMDSMGTS, the amyloid nucleation score was “inactive”. For KAFCFF, the amyloid nucleation score was 1.24 ± 0.12. For FRNSGTNACIL, the amyloid nucleation score was “inactive”. With HCGYGLFNCK the amyloid nucleation score was “inactive”. SNYFTFYLFNVRGIWGFADC showed an amyloid nucleation score of 2.56 ± 0.07. Work on DLWHPMSY yielded an amyloid nucleation score of -0.466 ± 0.84. SDDKGVWLIMAGLCGIWSMY showed an amyloid nucleation score of 2.33 ± 0.082. For RVYFKTGFPMVLLSKKRGSE, the amyloid nucleation score was 0.952 ± 0.19. In the case of GVHWETDEGNVVRL, the amyloid nucleation score is reported as “inactive”. For LFDLWNRVF, the amyloid nucleation score was “inactive”. PELCQCSHCNLLFLWTYYIA gave an amyloid nucleation score of -0.052 ± 0.98. For MLDRCD, the amyloid nucleation score was “inactive”. For SIGVFRYFVLVLHYWYGISS, the amyloid nucleation score was “inactive”. With AGKYIQNYEVKGCLSAYRAG the amyloid nucleation score was “inactive”. In the case of MKAYILMVDRLVVELVPHVA, the amyloid nucleation score is reported as -0.107 ± 0.35. For SEYYCYICLMVSIGFSANLL, the amyloid nucleation score was “inactive”. In the case of VKVFFPIVRCDTYHIYKQWG, the amyloid nucleation score is reported as 2.51 ± 0.053. In the case of GSVGSRADVFLGCGDEWRQA, the amyloid nucleation score is reported as “inactive”. For VLLFLTFMYSLSFWSMLLRG, the amyloid nucleation score was “inactive”. For HDTPFMCV, the amyloid nucleation score was “inactive”. In the case of YSSHVPSLHQLDQVSRRVQG, the amyloid nucleation score is reported as “inactive”. Substance YLNPAFELFKRMSNRFFVLA has an amyloid nucleation score of -1.02 ± 1.9. In the case of VMRALL, the amyloid nucleation score is reported as “inactive”. In the case of GTSIYSYRYLRYFSMFNM, the amyloid nucleation score is reported as “inactive”. With ALRGWILWW the amyloid nucleation score was “inactive”. In the case of FVIVYAMCKLYLMEKMRLIS, the amyloid nucleation score is reported as “inactive”. For HLSLRNNNAPDYPSGNSFWE, the amyloid nucleation score was “inactive”. For DNISHLAFCFNMALWYSNQS, the amyloid nucleation score was 1.23 ± 0.14. With FPGVLSLRYYLLRMRTQ the amyloid nucleation score was “inactive”. With CIYCTSSL the amyloid nucleation score was 0.519 ± 0.21. For GFTFNGF, the amyloid nucleation score was “inactive”. With YGFAVRLCCPSLNVFLTELL the amyloid nucleation score was 0.612 ± 0.15. In the case of WALWICC, the amyloid nucleation score is reported as 0.83 ± 0.13. For CEQQSRYHMKFMPASLLSFK, the amyloid nucleation score was “inactive”. With PNALDRIYSG the amyloid nucleation score was “inactive”. For YPKACVI, the amyloid nucleation score was “inactive”. For NWIRS, the amyloid nucleation score was “inactive”. With LVVVECSSLMRADLCSTQVM the amyloid nucleation score was “inactive”. With SPVSNYYDIKVVRDVSGCFT the amyloid nucleation score was “inactive”. Work on TWSACPTLCLD yielded an amyloid nucleation score of -0.392 ± 0.98. In the case of KDLWCSDSRS, the amyloid nucleation score is reported as “inactive”. In the case of HELFRTSHRLRCYFNPHSHI, the amyloid nucleation score is reported as “inactive”. With CSNLIIMKNSIERQTAFRYN the amyloid nucleation score was 0.284 ± 0.14. For RMGIASIYAIVLQPMIRLWL, the amyloid nucleation score was “inactive”. In the case of ALQLRVPDDVWLYVCYSRMN, the amyloid nucleation score is reported as “inactive”. For YAALWITYCLSSTTSRDDLD, the amyloid nucleation score was “inactive”. In the case of LKFFVYLLNLYEDFLPVRFS, the amyloid nucleation score is reported as “inactive”. For GIDDDCARHIYWGRFLIGSC, the amyloid nucleation score was -0.241 ± 1.1. For FCFIHIFNHNSRTNF, the amyloid nucleation score was “inactive”. With NHRSG the amyloid nucleation score was “inactive”. With FHKKMCTWIDELVIAVQFRD the amyloid nucleation score was “inactive”. With LICNCHPRESSDPTFLCGLG the amyloid nucleation score was “inactive”. With SKSKYHFYHHGEAWSTLVVV the amyloid nucleation score was “inactive”. For MSEFSQCRFKSHTFFVTSNR, the amyloid nucleation score was “inactive”. For YVTGVLDC, the amyloid nucleation score was “inactive”. With RSQSVQKIEATLSLLIGAPK the amyloid nucleation score was “inactive”. In the case of LWSIRYFKIS, the amyloid nucleation score is reported as “inactive”. With EGPGDEIFVSG the amyloid nucleation score was “inactive”. In the case of MIGVSRLCNRRIF, the amyloid nucleation score is reported as “inactive”. In the case of TTCYTLFSTDENDNSKWICG, the amyloid nucleation score is reported as “inactive”. For RNYNYFINCVHWLYLVSWGL, the amyloid nucleation score was 0.605 ± 0.45. With NLSLLSLVSFEVEVIQCTMR the amyloid nucleation score was “inactive”. With LCSSLIM the amyloid nucleation score was “inactive”. With MIPCLHEFLYLNSWDNKVGL the amyloid nucleation score was “inactive”. For YFLSDLQRKGSGLETVRVCR, the amyloid nucleation score was “inactive”. In the case of RTECYVYKYDALDSRLGYCD, the amyloid nucleation score is reported as -0.18 ± 0.62. Work on YMNSTFQMFD yielded an amyloid nucleation score of 0.829 ± 0.19. In the case of IDLRC, the amyloid nucleation score is reported as “inactive”. For DPLLLNRFGNCMLTLWVIVR, the amyloid nucleation score was “inactive”. With LSAADSMCGKRCLRGTP the amyloid nucleation score was “inactive”. For NDVSRNLSMFNY, the amyloid nucleation score was “inactive”. Substance SRFKFTAESLISVTVERLFL has an amyloid nucleation score of 0.626 ± 0.21. For FAMMDELRRMWARSACSTRV, the amyloid nucleation score was “inactive”. With LMYLTCPPRGDSTFPKVIRQ the amyloid nucleation score was “inactive”. GGKQCTPNDTM showed an amyloid nucleation score of -0.186 ± 0.55. For SLMCLLVRLLIKN, the amyloid nucleation score was “inactive”. For ELVYDLDRYDGGLGVKNEEW, the amyloid nucleation score was “inactive”. For NDASYDLRRWWCKTAPGLSG, the amyloid nucleation score was “inactive”. In the case of NPIIKKSKLLKGHLSTCPMV, the amyloid nucleation score is reported as “inactive”. In the case of CWLSWYFATKLGAYWELSNG, the amyloid nucleation score is reported as “inactive”. For MYRQGGCVIHWSNVG, the amyloid nucleation score was “inactive”. With SLWYIRSLLCFEVLSLFHLL the amyloid nucleation score was “inactive”. In the case of NQFMGRVV, the amyloid nucleation score is reported as “inactive”. In the case of ENNRCYYKMF, the amyloid nucleation score is reported as “inactive”. For AYVLARFLEDFFMILLWDRW, the amyloid nucleation score was “inactive”. AFYDNWKGNG showed an amyloid nucleation score of 0.141 ± 0.35. For TKSMVKNLHALPSIKRGVFV, the amyloid nucleation score was “inactive”. DGCGCKWTGACAMLSCHMYL showed an amyloid nucleation score of 1.41 ± 0.091. In the case of DSTDFRVLRGRRSRGEYVRG, the amyloid nucleation score is reported as “inactive”. In the case of CNCPPPPSSRYYSFSKAVYG, the amyloid nucleation score is reported as “inactive”. With LDYAFCILNNNCREC the amyloid nucleation score was 3.05 ± 0.057. For GSFSMKDTVEVYLTPVWFSR, the amyloid nucleation score was “inactive”. In the case of ASNYDYVYMPTWDKDRFSRY, the amyloid nucleation score is reported as “inactive”. For CRVSGGTCMTGISDRRRERI, the amyloid nucleation score was “inactive”. In the case of LHHFSAIPH, the amyloid nucleation score is reported as “inactive”. For GWSLGARSNYGLSTGQRGCA, the amyloid nucleation score was “inactive”. For GSNFICTFRVGKGYRPVCLE, the amyloid nucleation score was “inactive”. For WGEPIVLDLSSFFDLVDRHG, the amyloid nucleation score was “inactive”. In the case of AAMKGKSTHPHKGSFSLAIA, the amyloid nucleation score is reported as “inactive”. With WSFRNVVSVGMWYLCSDRIG the amyloid nucleation score was “inactive”. For QWRIRSWHMYDSSLARGLD, the amyloid nucleation score was “inactive”. With IFTLCITGGV the amyloid nucleation score was “inactive”. In the case of YYHLGLLDVSINEIRT, the amyloid nucleation score is reported as “inactive”. With QQLRNWFHLDPTLARKPKFL the amyloid nucleation score was “inactive”. In the case of FRLLLSKMAYFRADMTYDDF, the amyloid nucleation score is reported as “inactive”. In the case of DTMSKPSLLLGIPCVTHDVA, the amyloid nucleation score is reported as “inactive”. For YYFRRVWTCPLIAQIIKSDL, the amyloid nucleation score was 0.39 ± 0.71. For THEHMRHC, the amyloid nucleation score was “inactive”. For NVYTYIRPRRVYK, the amyloid nucleation score was “inactive”. In the case of VCHLWSLTVYGAVFQHLNFM, the amyloid nucleation score is reported as “inactive”. For KVGFHHDTVLAGSNQRVLFF, the amyloid nucleation score was -0.354 ± 0.88. In the case of VYIVSDTRMATASFG, the amyloid nucleation score is reported as -0.773 ± 1.3. For TQAWSTL, the amyloid nucleation score was “inactive”. With KIIYKGLYEHLIVMLNIINL the amyloid nucleation score was “inactive”. In the case of AIGRTCGKYMYSFGGLHSSH, the amyloid nucleation score is reported as “inactive”. In the case of VLVVLDVRRGTDLCTF, the amyloid nucleation score is reported as “inactive”. Substance EYSRMSSNQMVYSLVIFHNL has an amyloid nucleation score of 0.509 ± 0.33. For SQWIIGFTVTCFSSCKILKM, the amyloid nucleation score was “inactive”. With LNNFMWKHVMGYPYVAWLAF the amyloid nucleation score was “inactive”. For SGFVRWRSISFLPNHERLST, the amyloid nucleation score was “inactive”. For VFFAVF, the amyloid nucleation score was “inactive”. For VVHSGWKSLDNLPHLRDVVT, the amyloid nucleation score was “inactive”. In the case of VFTFFSMCMTPSYYPCRLAC, the amyloid nucleation score is reported as “inactive”. With SCYCN the amyloid nucleation score was “inactive”. For NASIRDGNMTFFSQAVTRLA, the amyloid nucleation score was “inactive”. For AAKYFCNCRGYFAPRLKC, the amyloid nucleation score was “inactive”. In the case of KCTANL, the amyloid nucleation score is reported as “inactive”. For VWTGWSKRGSSVA, the amyloid nucleation score was “inactive”. In the case of FWLSHQNDDVYTFMPLSCSS, the amyloid nucleation score is reported as “inactive”. In the case of AFLACLRLKDLDVVFRSPNR, the amyloid nucleation score is reported as “inactive”. With IEQGGI the amyloid nucleation score was “inactive”. In the case of YTLKCIQVVWLSMPVSVSNV, the amyloid nucleation score is reported as “inactive”. In the case of CMAIVATATRSGPVGRSLAK, the amyloid nucleation score is reported as 0.508 ± 0.33. VVPIVWHTGSSRVYTEGVLM gave an amyloid nucleation score of -0.65 ± 1.3. For KYCGLSRPIAFSPVVKKHLM, the amyloid nucleation score was “inactive”. For LRGMDYVCDEPLYVTLWVNR, the amyloid nucleation score was “inactive”. For AEHHYAFAFTEF, the amyloid nucleation score was “inactive”. In the case of DSQCLVWYIRFAYNERSHRK, the amyloid nucleation score is reported as “inactive”. For VLEYHTQPWGLAQRQTWLSG, the amyloid nucleation score was “inactive”. For LFCFSVN, the amyloid nucleation score was “inactive”. For TPSLAIKK, the amyloid nucleation score was “inactive”. In the case of DRNRCIVYTHGEISRLQ, the amyloid nucleation score is reported as “inactive”. For MWVPTRHKGLYFVNVVFACH, the amyloid nucleation score was “inactive”. With LYSCMFIMLFQNYFLPIGVA the amyloid nucleation score was “inactive”. With AIHTSPLIIPPNRFVRYRNR the amyloid nucleation score was “inactive”. In the case of LPPFCGSGCLSGLLRSKTRR, the amyloid nucleation score is reported as 0.617 ± 0.19. For SARSVIYYVPGLSTWSVTS, the amyloid nucleation score was “inactive”.
